# Assay results as given in patent US10370642B2, “Hematopoietic progenitor cell populations having affinity for E-selectin / L-selectin” (priority 2000, dated 2019).
# How the values were obtained:
# Type in all cases: cell-based
# [1] = molecular target: T1, P-selectin (Homo sapiens, UniProt P16109); test: CHO-P cell rolling on immobilized immunoprecipitates, parallel-plate flow chamber; settings: 2.8 dynes/cm^2
# T1 construct: CHO-P (CHO stably transfected with human cDNA encoding full length P-selectin); expressed in transfected cells
# T1 sequence (P16109 42-830): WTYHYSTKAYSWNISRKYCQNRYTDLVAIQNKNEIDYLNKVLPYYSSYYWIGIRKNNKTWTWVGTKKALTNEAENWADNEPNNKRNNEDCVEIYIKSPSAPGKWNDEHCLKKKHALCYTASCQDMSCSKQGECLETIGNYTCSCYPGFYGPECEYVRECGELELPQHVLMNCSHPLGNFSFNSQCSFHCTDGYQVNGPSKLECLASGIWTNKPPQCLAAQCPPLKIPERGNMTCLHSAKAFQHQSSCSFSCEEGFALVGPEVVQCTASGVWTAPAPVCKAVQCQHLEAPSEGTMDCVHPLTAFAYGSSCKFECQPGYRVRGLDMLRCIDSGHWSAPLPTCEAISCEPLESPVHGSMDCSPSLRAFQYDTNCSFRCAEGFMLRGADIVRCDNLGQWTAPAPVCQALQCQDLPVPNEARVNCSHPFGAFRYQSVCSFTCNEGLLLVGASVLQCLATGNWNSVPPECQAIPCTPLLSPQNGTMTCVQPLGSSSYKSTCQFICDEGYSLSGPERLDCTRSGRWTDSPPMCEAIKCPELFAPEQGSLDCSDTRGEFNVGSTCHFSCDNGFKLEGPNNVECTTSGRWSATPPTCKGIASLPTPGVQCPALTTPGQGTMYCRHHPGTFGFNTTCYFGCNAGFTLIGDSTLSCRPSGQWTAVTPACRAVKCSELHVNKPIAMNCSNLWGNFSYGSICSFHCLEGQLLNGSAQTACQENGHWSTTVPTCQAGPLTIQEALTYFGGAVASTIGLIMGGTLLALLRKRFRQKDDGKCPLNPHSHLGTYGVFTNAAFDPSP
# Method: CD44 or PSGL-1 immunoprecipitates were spotted onto plastic petri dishes, fixed in 3% glutaraldehyde and incubated in 0.2M lysine to block unreactive aldehyde groups, and then non-specific binding was prevented by incubating in 100% FBS for 1 hr at RT. Fixed spots were also treated with Vibrio cholerae neuraminidase (0.1 U/ml assay medium), which was overlaid onto the spots and incubated at 37° C. for 1 hr. The protein dishes were placed in the parallel-plate flow chamber and CHO-E, CHO-P (CHO stably transfected with human cDNA encoding full length P-selectin), CHO-P cells treated with function blocking anti-P-selectin moAb (clone AK-4; Pharmingen) (10 μg/ml), CHO-E cells treated with function blocking anti-E-selectin Abs (10 μg/ml) (clone 68-5H1 1) or Mock transfectants were perfused into the chamber (2×10^6/ml H/H/Ca++) at a flow rate of 0.2 ml/min until the cells were in contact with the substrate. The flow rate was then increased to achieve a shear stress of 2.8 dynes/cm^2. The frequency of cells rolling per 100× magnification field was determined, and data were expressed as the mean±standard deviation of 8 fields visualized from a minimum of 3 experiments.
# [2] = molecular target: T2, E-selectin (Homo sapiens, UniProt P16581); test: CHO-E cell rolling on immobilized immunoprecipitates, parallel-plate flow chamber; settings: immunoprecipitates on plastic; 2.8 dynes/cm^2
# T2 construct: stably transfected with full-length cDNA encoding human E-selectin; expressed in transfected cells
# T2 sequence (P16581 22-610): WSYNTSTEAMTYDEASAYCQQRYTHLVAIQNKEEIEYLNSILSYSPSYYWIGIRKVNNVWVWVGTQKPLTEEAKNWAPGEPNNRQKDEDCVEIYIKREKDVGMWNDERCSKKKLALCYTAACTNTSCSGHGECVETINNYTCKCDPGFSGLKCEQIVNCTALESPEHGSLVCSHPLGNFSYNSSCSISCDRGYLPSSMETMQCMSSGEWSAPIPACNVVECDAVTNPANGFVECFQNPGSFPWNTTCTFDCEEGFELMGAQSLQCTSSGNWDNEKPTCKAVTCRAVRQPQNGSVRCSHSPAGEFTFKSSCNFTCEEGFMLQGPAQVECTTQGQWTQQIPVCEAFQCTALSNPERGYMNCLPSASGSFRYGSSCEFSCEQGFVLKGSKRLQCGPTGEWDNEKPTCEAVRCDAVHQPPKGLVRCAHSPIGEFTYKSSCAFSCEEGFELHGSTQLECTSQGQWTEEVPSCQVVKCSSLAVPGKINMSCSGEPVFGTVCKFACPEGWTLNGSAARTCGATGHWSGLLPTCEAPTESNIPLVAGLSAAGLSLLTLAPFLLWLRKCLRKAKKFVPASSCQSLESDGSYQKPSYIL
# Method: CD44 was immunoprecipitated from untreated cell lysates or from cell lysates treated with N-glycosidase-F (0.8 U/ml) Vibrio cholerae neuraminidase (0.1 U/ml) or a-L-fucosidase (80 mU/ml), and PSGL-1 was immunoprecipitated from untreated cell lysates as previously described (Sackstein and Dimitroff, 2000; Dimitroff et al., 2000).
# CD44 or PSGL-1 immunoprecipitates were spotted onto plastic petri dishes, fixed in 3% glutaraldehyde and incubated in 0.2M lysine to block unreactive aldehyde groups, and then non-specific binding was prevented by incubating in 100% FBS for 1 hr at RT. Fixed spots were also treated with Vibrio cholerae neuraminidase (0.1 U/ml assay medium), which was overlaid onto the spots and incubated at 37° C. for 1 hr. […] The flow rate was then increased to achieve a shear stress of 2.8 dynes/cm^2. The frequency of cells rolling per 100× magnification field was determined, and data were expressed as the mean±standard deviation of 8 fields visualized from a minimum of 3 experiments.
# [3] = system: L-selectin; test: Stamper-Woodruff assay of immunoprecipitated KG1a CD44 (Example 7); settings: immunoprecipitate spotted onto glass slides
# Source text: To further analyze the L-selectin ligand activity of CD44, we performed Stamper-Woodruff assays using immunoprecipitated CD44 or isotype control (rat lgG)
# immunoprecipitates of KG1 a cells that was spotted onto glass slides as described (Sackstein, R. & Dimitroff, C. J. (2000). Blood. 96, 2765-2774).
substance,measurement,setting,value
"KG1a CD44: glycoform of CD44 with HECA-452 reactive sialylated, fucosylated N-glycans, immunoprecipitated from KG1a cells with Hermes-1",P-selectin ligand activity (CHO-P cell rolling),[1],not a P-selectin ligand
same,E-selectin ligand activity (CHO-E cell rolling),[2],exhibited E-selectin ligand activity over a range of shear stress
same,L-selectin-mediated lymphocyte adherence,[3],362±15 bound cells/field
